Measured values: paper PMC4052767 (Genes & Development, 2014)

T1: Yeast Hat2p (full length) with N-terminal 6xHis tag (yeast (Saccharomyces cerevisiae), UniProt P39984 1-401)
T1 sequence: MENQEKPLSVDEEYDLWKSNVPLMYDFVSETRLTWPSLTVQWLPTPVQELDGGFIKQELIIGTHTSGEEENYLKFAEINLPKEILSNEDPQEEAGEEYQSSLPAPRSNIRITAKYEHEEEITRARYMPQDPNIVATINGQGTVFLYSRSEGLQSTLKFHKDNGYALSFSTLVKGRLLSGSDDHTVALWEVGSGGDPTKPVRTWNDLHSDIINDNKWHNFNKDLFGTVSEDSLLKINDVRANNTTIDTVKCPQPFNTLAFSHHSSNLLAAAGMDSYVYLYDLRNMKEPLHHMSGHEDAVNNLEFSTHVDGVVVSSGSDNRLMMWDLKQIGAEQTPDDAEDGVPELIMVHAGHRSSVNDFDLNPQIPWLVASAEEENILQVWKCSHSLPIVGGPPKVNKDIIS

B1: Yeast Hat1p (1-320) (enzyme)
chain: MSANDFKPETWTSSANEALRVSIVGENAVQFSPLFTYPIYGDSEKIYGYKDLIIHLAFDSVTFKPYVNVKYSAKLGDDNIVDVEKKLLSFLPKDDVIVRDEAKWVDCFAEERKTHNLSDVFEKVSEYSLNGEEFVVYKSSLVDDFARRMHRRVQIFSLLFIEAANYIDETDPSWQIYWLLNKKTKELIGFVTTYKYWHYLGAKSFDEDIDKKFRAKISQFLIFPPYQNKGHGSCLYEAIIQSWLEDKSITEITVEDPNEAFDDLRDRNDIQRLRKLGYDAVFQKHSDLSDEFLESSRKSLKLEERQFNRLVEMLLLLNNS
B2: Hat1p Y196A (enzyme)
chain: MSANDFKPETWTSSANEALRVSIVGENAVQFSPLFTYPIYGDSEKIYGYKDLIIHLAFDSVTFKPYVNVKYSAKLGDDNIVDVEKKLLSFLPKDDVIVRDEAKWVDCFAEERKTHNLSDVFEKVSEYSLNGEEFVVYKSSLVDDFARRMHRRVQIFSLLFIEAANYIDETDPSWQIYWLLNKKTKELIGFVTTYKAWHYLGAKSFDEDIDKKFRAKISQFLIFPPYQNKGHGSCLYEAIIQSWLEDKSITEITVEDPNEAFDDLRDRNDIQRLRKLGYDAVFQKHSDLSDEFLESSRKSLKLEERQFNRLVEMLLLLNNS
B3: Hat1p Y194A (enzyme)
chain: MSANDFKPETWTSSANEALRVSIVGENAVQFSPLFTYPIYGDSEKIYGYKDLIIHLAFDSVTFKPYVNVKYSAKLGDDNIVDVEKKLLSFLPKDDVIVRDEAKWVDCFAEERKTHNLSDVFEKVSEYSLNGEEFVVYKSSLVDDFARRMHRRVQIFSLLFIEAANYIDETDPSWQIYWLLNKKTKELIGFVTTAKYWHYLGAKSFDEDIDKKFRAKISQFLIFPPYQNKGHGSCLYEAIIQSWLEDKSITEITVEDPNEAFDDLRDRNDIQRLRKLGYDAVFQKHSDLSDEFLESSRKSLKLEERQFNRLVEMLLLLNNS
B4: Hat1p Y37A (enzyme)
chain: MSANDFKPETWTSSANEALRVSIVGENAVQFSPLFTAPIYGDSEKIYGYKDLIIHLAFDSVTFKPYVNVKYSAKLGDDNIVDVEKKLLSFLPKDDVIVRDEAKWVDCFAEERKTHNLSDVFEKVSEYSLNGEEFVVYKSSLVDDFARRMHRRVQIFSLLFIEAANYIDETDPSWQIYWLLNKKTKELIGFVTTYKYWHYLGAKSFDEDIDKKFRAKISQFLIFPPYQNKGHGSCLYEAIIQSWLEDKSITEITVEDPNEAFDDLRDRNDIQRLRKLGYDAVFQKHSDLSDEFLESSRKSLKLEERQFNRLVEMLLLLNNS
B5: Hat1p A202D (enzyme)
chain: MSANDFKPETWTSSANEALRVSIVGENAVQFSPLFTYPIYGDSEKIYGYKDLIIHLAFDSVTFKPYVNVKYSAKLGDDNIVDVEKKLLSFLPKDDVIVRDEAKWVDCFAEERKTHNLSDVFEKVSEYSLNGEEFVVYKSSLVDDFARRMHRRVQIFSLLFIEAANYIDETDPSWQIYWLLNKKTKELIGFVTTYKYWHYLGDKSFDEDIDKKFRAKISQFLIFPPYQNKGHGSCLYEAIIQSWLEDKSITEITVEDPNEAFDDLRDRNDIQRLRKLGYDAVFQKHSDLSDEFLESSRKSLKLEERQFNRLVEMLLLLNNS
B6: Hat1p A163Y (enzyme)
chain: MSANDFKPETWTSSANEALRVSIVGENAVQFSPLFTYPIYGDSEKIYGYKDLIIHLAFDSVTFKPYVNVKYSAKLGDDNIVDVEKKLLSFLPKDDVIVRDEAKWVDCFAEERKTHNLSDVFEKVSEYSLNGEEFVVYKSSLVDDFARRMHRRVQIFSLLFIEYANYIDETDPSWQIYWLLNKKTKELIGFVTTYKYWHYLGAKSFDEDIDKKFRAKISQFLIFPPYQNKGHGSCLYEAIIQSWLEDKSITEITVEDPNEAFDDLRDRNDIQRLRKLGYDAVFQKHSDLSDEFLESSRKSLKLEERQFNRLVEMLLLLNNS

What was measured:
[1] = molecular target: T1, Yeast Hat2p (full length) with …; experiment: crystal structure
[2] = molecular target: T1, Yeast Hat2p (full length) with …; experiment: pull-down

Binder | binding result [1] | binding result [2]
ARTKQTARKSTGGKA [H3 peptide (residues 1-15), unmodified] | binds | –
B1 | – | binds
B2 | – | binds
B3 | – | binds
B4 | – | binds
B5 | – | binds
B6 | – | binds
